Assay results reported in publication PMC11574021, “CEP192 localises mitotic Aurora-A activity by priming its interaction with TPX2” (The EMBO Journal, 2024).
Residue numbers refer to the chain shown, from its start. Values joined by “and” are separate entries in the source; they are usually repeats but may differ in a detail not shown here. Equal entries are not always repeated. Where no end group is shown, it is not given here. FAM = 5(6)-carboxyfluorescein

Assays:
[1] = molecular target: Aurora-A; settings: fluorescence binding; ref Park et al. (2023) Figure 3B; cited from earlier work
Source text: page 11: cycle control) in these cell lines is still useful. […] As for combined depletion of CEP192 and TPX2, this was very toxic in both U251 and RPE1 cells, unsurprising given that both proteins are essential for proliferation.

[2] = test system: His-tagged Aurora-A 122-403 or full-length (1-403); experiment: Pull-down of Aurora-A by GST-tagged CEP192; format: binding, human; settings: Aurora-A 122-403 and 1-403, western blot
Description: GST-tagged CEP192 constructs were overexpressed in LB and purified on glutathione resin using standard methods. Tagged proteins were eluted in 100 mM TRIS pH 7.5, 500 mM NaCl, 1 mM DTT, 10% Glycerol, 10 mM reduced glutathione, before dialysis in elution buffer without glutathione and storage at −80 °C. About 250 μg of GST-tagged CEP192 constructs or GST as a control were immobilised on 50 μl of glutathione resin (GE healthcare) per sample equilibrated in pull-down buffer (50 mM tris pH 7.5, 300 mM NaCl, 1 mM DTT, 5 mM magnesium chloride, 10% glycerol, 0.1% Tween 20). After 60 min of immobilisation the beads were washed three times in 900 μl of binding buffer to remove any excess protein. About 35 μg of His-tagged Aurora-A 122–403 or full-length protein (1–403) was added to samples of immobilised truncation or GST control. These were left to bind for 60 min on the roller. The beads were pelleted and washed three times in 900 μl of binding buffer. The resin was resuspended in 100 μl of SDS loading dye. After separation on an SDS-PAGE gel, these were transformed onto nitrocellulose membranes before probing with anti-GST and anti-His primary antibodies.

[3] = molecular target: T1, phosphorylated Aurora-A^CAKD (Aurora-A 122–403 C290A C393A, not co-expressed with lambda phosphatase) (human, UniProt O14965 122-403, C290A | C393A, phosphorylated (sites of this preparation not printed in the text shown)); experiment: cell-based or functional assay
T1 sequence (looked up): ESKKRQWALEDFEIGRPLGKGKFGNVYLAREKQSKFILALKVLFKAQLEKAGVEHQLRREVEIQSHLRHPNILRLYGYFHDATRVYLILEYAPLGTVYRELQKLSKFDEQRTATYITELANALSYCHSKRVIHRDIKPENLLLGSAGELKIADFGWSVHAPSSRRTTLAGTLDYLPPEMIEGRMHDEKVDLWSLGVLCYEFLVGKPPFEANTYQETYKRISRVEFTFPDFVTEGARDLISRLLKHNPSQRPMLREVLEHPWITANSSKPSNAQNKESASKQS

[4] = molecular target: T2, Aurora-A^CAKD (Aurora-A kinase domain, aa 122–403 C290A, C393A), unphosphorylated (human, UniProt O14965 122-403, C290A | C393A); experiment: ITC; 250 μM Aurora-A in the syringe, 25 μM CEP192 construct in the cell; 25 °C; 20 mM tris pH 7.5, 200 mM NaCl, 10% glycerol, 5 mM MgCl2; settings: both partners purified
T2 construct: Aurora-A kinase domain, human, residues 122-403, variant lacking surface cysteines; also called Aurora-A 122–403 C290A C393A; unphosphorylated Aurora-A^CAKD; source: E. coli RIL, co-expressed with lambda phosphatase, purified (HisTrap, TEV cleavage, SEC); not shown: His6, N-terminal, cleaved
T2 sequence (looked up): T1 sequence (looked up)

[5] = molecular target: T1, phosphorylated Aurora-A^CAKD (Aurora-A …); experiment: as above; settings: both partners purified
[6] = molecular target: T2, Aurora-A^CAKD (Aurora-A kinase domain, …); experiment: fluorescence polarisation; competition: 25 μM Aurora-A kinase domain preincubated with 100 nM FAM-TACC3 522-536, CEP192 competitor serially diluted; 25 mM HEPES pH 7.5, 150 mM NaCl, 2 mM DTT, 5 mM MgCl2, 0.01% Tween 20; settings: both partners purified
[7] = molecular target: T2, Aurora-A^CAKD (Aurora-A kinase domain, …); experiment: fluorescence polarisation; competition: 10 μM unphosphorylated Aurora-A^CAKD preincubated with 100 nM FAM-TPX2 7-43, CEP192 competitor serially diluted; 25 mM HEPES pH 7.5, 150 mM NaCl, 2 mM DTT, 5 mM MgCl2, 0.01% Tween 20; settings: both partners purified
[8] = molecular target: T2, Aurora-A^CAKD (Aurora-A kinase domain, …); experiment: fluorescence polarisation; direct fluorescence anisotropy: Aurora-A diluted across the plate, 50 nM tracer FAM-CEP192 501–533; 25 mM HEPES pH 7.5, 150 mM NaCl, 2 mM DTT, 5 mM MgCl2, 0.01% Tween 20; 1 h at room temperature; settings: both partners purified
[9] = molecular target: T1, phosphorylated Aurora-A^CAKD (Aurora-A …); experiment: as above; settings: both partners purified
[10] = molecular target: T3, Aurora-A^M7KD (Aurora-A 122–403 D274N C290A C393A N332A Q335A T347A D350A) (human, UniProt O14965 122-403, D274N | C290A | C393A | N332A | Q335A | T347A | D350A); experiment: as above; settings: both partners purified
T3 construct: Aurora-A kinase domain, human, residues 122-403, with crystal-contact mutations in the C-lobe; also called Aurora-A^M7KD-D; Aurora^M7KD; source: E. coli, purified; not shown: His6, N-terminal, cleaved
T3 sequence (looked up): T1 sequence (looked up) with D153N, N211A, Q214A, T226A, D229A

FAM-CEP192 506-536: labelled peptide of Park et al 2023
Kd [1]: 700 nM

B1: CEP192 405-649: GST-tagged CEP192 fragment 405-649 (protein, UniProt Q8TEP8 405-649, looked up, fragment)
chain: HMDGCLDTETPTVSIQENVDVASLKPISDSGINFTDAIWSPTCERRTCECHESIEKNKDKTDLPQSVVYQNEEGRWVTDLAYYTSFNSKQNLNVSLSDEMNEDFRSGSEAFDLIAQDEEEFNKEHQFIQEENIDAHNTSVALGDTSWGATINYSLLRKSRSTSDLDKDDASYLRLSLGEFFAQRSEALGCLGGGNNVKRPSFGYFIRSPEKREPIALIRKSDVSRGNLEKEMAHLNHDLYSGDLN
modifications: GST tag
co-precipitation of Aurora-A [2]: able to interact significantly with Aurora

B2: human CEP192 468–533 (domain or fragment, UniProt Q8TEP8 468-533, looked up)
chain: PQSVVYQNEEGRWVTDLAYYTSFNSKQNLNVSLSDEMNEDFRSGSEAFDLIAQDEEEFNKEHQFIQ
notes: also called CEP192_(506-527_F); source: E. coli B834 RIL, purified (HisTrap, TEV cleavage, SEC); for crystallisation co-expressed with Aurora-A^M7KD and co-purified; not shown: His6, N-terminal, cleaved; SUMO, N-terminal, cleaved
ADP-Glo, 10 nM phosphorylated Aurora-A^CAKD with kemptide: IC50 of partial inhibition of kinase activity [3]: 18 nM | Kd [4]: 80.6 nM | Kd [5]: 134 nM | IC50 [6]: 5000 nM | IC50 [7]: 3700 nM

B3: FAM-CEP192 501–533 (peptide, UniProt Q8TEP8 501-533, looked up)
peptide: {FAM}-SDEMNEDFRSGSEAFDLIAQDEEEFNKEHQFIQ
notes: Made on Rink amide resin and labelled on resin after synthesis, so N-terminal label and C-terminal amide are likely; MS data of the peptides are in the source data; source: synthetic peptide
Kd [8]: 420 nM and 1170 nM | Kd [9]: 370 nM | Kd [10]: 1250 nM
